These are literature values, as cited in article PMC6540754.

The series addresses BfrB (Pseudomonas aeruginosa) (UniProt Q9HY79).
Chain of UniProt Q9HY79 (Q9HY79 whole entry): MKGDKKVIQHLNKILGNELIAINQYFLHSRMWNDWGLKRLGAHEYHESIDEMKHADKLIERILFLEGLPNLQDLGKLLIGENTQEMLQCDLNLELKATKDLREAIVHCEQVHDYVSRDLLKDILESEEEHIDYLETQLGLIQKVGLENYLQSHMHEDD

For Bfd (from UniProt Q9HY80), the Kd – broadly, a measure of binding affinity in units of concentration – was 3.4 µM.
